For one substance, stoichiometry N results are on record in article PMC7325957.

The assay concerns the target NttE from L. pneumophila strain 130b, His6-tagged (residues 1 to 269; minus its N-terminal signal sequence) (Legionella pneumophila strain 130b). Kind of assay: SEC-SAXS. On the technique in general: Size exclusion chromatography separates by hydrodynamic size, large species first.

As a reminder, the stoichiometry N is a count of units in the complex or per binding partner. “NttE from L. pneumophila strain 130b, His6-tagged (residues 1 to 269; minus its N-terminal signal sequence) (natural protein)” showed a stoichiometry N of 2.
